{
  "source": "paper PMC10936212",
  "key": {"[1]": {"target": "CosR (Campylobacter jejuni) (UniProt A0A3H9R6A1)", "test": "fluorescence polarization", "settings": "FP: 10 mM PBS pH 7.4, 5 nM fluoresceinated DNA, 1 ug poly(dI-dC), 25 C"}, "[2]": {"target": "Campylobacter jejuni CosR regulator (Campylobacter jejuni)", "test": "crystal structure; CosR (8 mg/mL) with 21 bp DNA1 duplex (2.6 mg/mL), vapor diffusion, Na-MES pH 6.5, 2.90 Å; the dimer is formed by a crystallographic symmetry operator"}, "[3]": {"target": "Campylobacter jejuni CosR regulator (Campylobacter jejuni)", "test": "crystal structure; CosR (320 uM) with 21 bp DNA2 duplex (192 uM), vapor diffusion, Na-MES pH 6.5, 2.20 Å"}, "[4]": {"target": "Campylobacter jejuni CosR regulator (Campylobacter jejuni)", "test": "cryo-EM structure; single-particle cryo-EM of 20 uM CosR incubated 2 h with 10 uM 40 bp ds-DNA; the class of DNA-free particles (apo-CosR) sorted in silico (build and retrieve), 3.77 Å"}},
  "data": [
    {"substance": "AATTAAGATATTATTAACCAA (double strand) [DNA2 (fluorescein)]", "values": [
      {"measurement": "Kd", "setting": "[1]", "value": 2.5, "unit": "nM"}
    ]},
    {"substance": "Campylobacter jejuni CosR regulator (natural protein)", "values": [
      {"measurement": "stoichiometry N", "setting": "[2]", "value": 2},
      {"measurement": "stoichiometry N", "setting": "[3]", "value": 2},
      {"measurement": "stoichiometry N", "setting": "[4]", "value": 2}
    ]},
    {"substance": "TATTAACCAAAATTAAGATAT (double strand) [DNA1 (fluorescein)]", "values": [
      {"measurement": "Kd", "setting": "[1]", "value": 4.5, "unit": "nM"}
    ]}
  ]
}
